Source: patent US20250340636A1 (Memorial Sloan Kettering, published 2025)
Where a chain is given by its changes, count along the chain named.

B1: TDI-Y-004 ADC with PNU-159682 and a cleavable Glu-Val-Cit linker (antibody, human IgG1, kappa, V domains shown)
VH: QVQLVQSGAEVKKPGSSVKVSCKASGYTFTNYYIHWVRQAPGQGLEWMGKIGPGSGSPYYQGMFKDRVTITADESTSTAYMELSSLRSEDTAVYYCARWLLPFDYWGQGTLVTVSS
VL: EIVLTQSPGTLSLSPGERATLSCRASSSVNYMHWYQQKPGQAPRLLIYATSILASGIPDRFSGSGSGTDYTLTISRLEPEDFAVYYCQQFSSDPLTFGGGTKVEIKR
modifications: ThioBridge linker-payload on the interchain disulfide cysteine; ThioBridge-Glu[-Glu(OH)-Val-Cit-PAB-DMEA-PNU159682]-PEG(24) rebridging the reduced interchain disulfide cysteines; average DAR about 4
B2: TDI-Y-005 ADC with PNU-159682 and a cleavable Glu-Val-Cit linker (antibody, human IgG1, kappa, V domains shown)
VH: EVQMVESGGGLVQPGGSLRLSCAAPGFIFSSYNMNWVRQAPGKGLEWVSYISSSSSTTYYADSVKGRFTISRDNAKNSLYLQMNSLRDEDTAVYYCASLYSGYDYYYYYGMDVWGQGTTVTVSS
VL: DIVMTQTPLSSPVSLGQPASISCRSSQSLVHSDGNTYLSWLQQRPGQPPRVLIYKISKRFSGVPDRFSGSGAGTDFTLKISRVEAEDVGVYYCMQATQFPFTFGPGTKVDIKR
modifications: ThioBridge linker-payload on the interchain disulfide cysteine; ThioBridge-Glu[-Glu(OH)-Val-Cit-PAB-DMEA-PNU159682]-PEG(24) rebridging the reduced interchain disulfide cysteines; average DAR about 4
B3: 13F04 (antibody, V domains shown)
VH: QVQLQQPGAELVKPGASVKLSCKASGYIFISYWMHWVKQRPGQGLEWIGEINPRNGRTNYNEKFKSKATLTVDKSSSTAYMQLTSLTSEDSAVYYCARGGDYGGSFDYWGQGTTLTVSS
VL: DIVLTQSPASLAVSLGQRATISCRASESVDSYGNSFMHWYQQKPGQPPKLLIYRASNLESGIPARFSGSGSRTDFTLTVNPVEADDVATYYCQQSNEDPWTFGGGTKLEIK
notes: mAb from wild-type mice, purified from the supernatant of a hybridoma clone; also called L1CAM mAb 13F04
B4: 143G03 (antibody, V domains shown)
VH: QVQLRQSGAELVRPGTSVKMSCKASGYTFTNYYIHWVKQRPGQGLEWIGKIGPGSGSPYYNGMFKDKATLTVDTSSSTAYMQLSSLTSEDSAVYFCARWLLPFDYWGQGTTLTVSS
VL: QIVLSQSPGILSASPGEKVTMTCRASSSVNYMHWYQQKSGSSPKPWIFATSILASGVPPRFSGSGSGTSYSLTISSVEAEDTATYYCQQFSSDPLTFGAGTKLELK
notes: mAb from wild-type mice; also called 143G03 WT; murine 143G03 mAb
B5: 04B06 (antibody, V domains shown)
VH: QVQLQESGPGLVKPSETLSLTCTVSGGSINSYYWSWIRQPAGKGLEWIGRFYTSGSTNHNPSLKSRVTMSVDTSKNQFSLKLTSVTAADTAVYYCAREWSGSFYGGDAFDIWGQGTMVTVSS
VL: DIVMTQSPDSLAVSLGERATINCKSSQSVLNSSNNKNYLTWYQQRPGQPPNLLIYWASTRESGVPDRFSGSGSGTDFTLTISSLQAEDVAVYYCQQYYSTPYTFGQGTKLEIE
notes: mAb from AlivaMab mice (human immunoglobulin repertoire), purified from hybridoma supernatant
B6: 13G04 (antibody, V domains shown)
VH: QVQLVQSGAEVKKPGASVKVSCKASGYTFIGYYLHWVRQAPGQGLEWMGWINPNSGGTNSAQKFQGRVTMTRDTSISTTYMDLSRLRSDDTAVYYCARGGLERRDAFDIWGQGTLVTVSS
VL: DIQMTQSPSTLSASVGDRVTITCRASQSISNWLAWYQQKPGKAPNLLIYKASSLESGVPSRFSGSGSGTEFTLTISSLQPDDFATYYCQQYDTYRTFGQGTKVEIK
notes: mAb from AlivaMab mice, purified from hybridoma supernatant
B7: 14A10 (antibody, V domains shown)
VH: B2 VH
VL: DIVMTQTPLSSPVSLGQPASISCRSSQSLVHSDGNTYLSWLQQRPGQPPRVLIYKISKRFSGVPDRFSGSGAGTDFTLKISRVEAEDVGVYYCMQATQFPFTFGPGTKVDIK
notes: mAb from AlivaMab mice
B8: 15G02 (antibody, V domains shown)
VH: EVQLVESGGGLVQPGGSLRLSCGVSGFTFSHYWMNWVRQAPGKGLEWVANIMQDGSEKYYVDSVKGRFTISRDNAKNSLYLQMNSLRVEDTAVYYCARDRGVTTLFDYWGQGILVTVSS
VL: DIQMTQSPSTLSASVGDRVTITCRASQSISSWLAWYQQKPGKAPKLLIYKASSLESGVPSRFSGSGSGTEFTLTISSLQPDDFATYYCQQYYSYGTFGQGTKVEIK
notes: as for B6
B9: 76H12 Fab construct 1 (chimeric; parental mouse 76H12 V-regions) (Fab, V domains shown)
VH: QVQLQQPGSDLVRPGTSVKLSCKASGYTFTSYWMHWVKQRPGQGLEWIGNVYPGSGSTKYDEKFKTKATLTVDTSSNTAYMELSSLTSEDSAVYYCTRPGNYEGFAYWGQGTLVTVSA
VL: B3 VL with D1N, N34S, R54L, I62V, V79I, N80D, V87A, S95N
notes: also called Fab 1; chimeric 76H12 Fab
B10: 76H12 Fab construct 2 (humanized) (Fab, V domains shown)
VH: QVQLVQSGAEVKKPGASVKVSCKASGYTFTSYWMHWVRQAPGQGLEWMGNVYPGSGSTKYAQKFQGRVTMTRDTSTSTVYMELSSLRSEDTAVYYCARPGNYEGFAYWGQGTLVTVSS
VL: NIQLTQSPSSLSASVGDRVTITCRASESVDSYGSSFMHWYQQKPGKPPKLLIYLASNLESGVPSRFSGSGSGTDFTLTISSLQPEDFATYYCQQNNEDPWTFGQGTKLEIK
notes: also called Fab 2
B11: Ch143G03-GF (antibody, V domains shown)
VH: B4 VH
VL: B4 VL
notes: read as chimeric 143G03 (murine variable regions of 143G03, human constant regions). '-GF' is not explained
B12: hu14A10 (antibody, V domains shown)
VH: B2 VH
VL: B7 VL

biological target: T1, human L1CAM on cells (human, UniProt P32004 20-1257); test: cell-based or functional assay
T1 sequence (P32004 20-1257): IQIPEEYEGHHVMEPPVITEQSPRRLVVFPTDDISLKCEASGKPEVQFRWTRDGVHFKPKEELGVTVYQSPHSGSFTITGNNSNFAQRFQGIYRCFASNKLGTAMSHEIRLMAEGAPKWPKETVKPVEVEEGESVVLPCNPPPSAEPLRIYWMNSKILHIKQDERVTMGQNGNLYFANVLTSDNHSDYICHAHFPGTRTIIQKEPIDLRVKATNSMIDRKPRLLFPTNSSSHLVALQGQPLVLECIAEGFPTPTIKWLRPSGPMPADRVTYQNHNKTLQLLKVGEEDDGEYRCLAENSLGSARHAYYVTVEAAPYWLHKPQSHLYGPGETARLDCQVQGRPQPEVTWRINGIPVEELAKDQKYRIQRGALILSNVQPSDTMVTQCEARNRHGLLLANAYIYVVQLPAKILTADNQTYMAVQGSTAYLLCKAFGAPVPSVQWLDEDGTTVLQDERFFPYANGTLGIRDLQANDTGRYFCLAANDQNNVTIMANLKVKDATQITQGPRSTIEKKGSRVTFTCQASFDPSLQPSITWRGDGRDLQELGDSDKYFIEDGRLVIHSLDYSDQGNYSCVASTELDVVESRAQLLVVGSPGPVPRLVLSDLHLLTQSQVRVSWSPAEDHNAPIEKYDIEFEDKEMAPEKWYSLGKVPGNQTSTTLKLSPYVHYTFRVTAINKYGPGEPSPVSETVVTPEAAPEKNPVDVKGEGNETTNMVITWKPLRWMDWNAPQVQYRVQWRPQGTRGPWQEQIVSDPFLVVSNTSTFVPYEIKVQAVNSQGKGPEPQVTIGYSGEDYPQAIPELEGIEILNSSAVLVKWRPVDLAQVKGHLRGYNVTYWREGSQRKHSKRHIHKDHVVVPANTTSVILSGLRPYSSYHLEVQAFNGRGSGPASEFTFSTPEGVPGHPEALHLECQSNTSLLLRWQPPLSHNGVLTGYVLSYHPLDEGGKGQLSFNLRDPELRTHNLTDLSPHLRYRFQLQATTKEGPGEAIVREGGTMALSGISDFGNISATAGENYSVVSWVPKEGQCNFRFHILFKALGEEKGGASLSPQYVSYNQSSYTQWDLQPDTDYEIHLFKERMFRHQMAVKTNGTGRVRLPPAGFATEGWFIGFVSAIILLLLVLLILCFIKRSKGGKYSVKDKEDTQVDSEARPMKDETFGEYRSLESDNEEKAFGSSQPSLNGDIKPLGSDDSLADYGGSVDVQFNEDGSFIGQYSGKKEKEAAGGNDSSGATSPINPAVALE

Binder | EC50 of cytotoxicity, HEK293T-hL1CAM cells (CellTiterGlo, 96 hours) | EC50 of cytotoxicity, MCF-7 cells (CellTiterGlo, 96 hours) | EC50 of cytotoxicity, MDA-MB-231 cells (CellTiterGlo, 96 hours)
B1 | 0.008 nM | 0.03 nM | 3.3 nM
B2 | 0.03 nM | 0.4 nM | 12.4 nM

biological target: T1, human L1CAM on cells; test: flow cytometry, MCF-7 cells
Method: (§1) Binding Analysis. […] Dissociation constants (KD) for binding to soluble human and cynomolgus monkey L1CAM-His were determined using biolayer interferometry (BLI). In addition, EC50 values for binding to cell-bound L1CAM were established by flow cytometry using HEK293T/FT cells overexpressing human or mouse L1CAM, MCF-7 cells, and MDA-MB-231 cells. In addition, the epitope regions of the mAbs were determined by BLI interaction analysis with L1CAM subdomains (Ig and FN) expressed individually, and by a BLI competition experiment to identify epitope bins.

Binder | EC50
B3 | 1.2 nM
B4 | 0.35 nM
B5 | 1.1 nM
B6 | 4.8 nM
B7 | 5.3 nM
B8 | 1 nM

biological target: T2, extracellular domain of human L1CAM (isoform 1) fused to a poly-histidine tag via its carboxy terminus (human, UniProt P32004 20-1120); test: BLI, soluble human L1CAM-His
T2 construct: Bought (Creative Biomart); also called L1CAM-His; huL1CAM protein
Method: as §1

T2 sequence (P32004 20-1120): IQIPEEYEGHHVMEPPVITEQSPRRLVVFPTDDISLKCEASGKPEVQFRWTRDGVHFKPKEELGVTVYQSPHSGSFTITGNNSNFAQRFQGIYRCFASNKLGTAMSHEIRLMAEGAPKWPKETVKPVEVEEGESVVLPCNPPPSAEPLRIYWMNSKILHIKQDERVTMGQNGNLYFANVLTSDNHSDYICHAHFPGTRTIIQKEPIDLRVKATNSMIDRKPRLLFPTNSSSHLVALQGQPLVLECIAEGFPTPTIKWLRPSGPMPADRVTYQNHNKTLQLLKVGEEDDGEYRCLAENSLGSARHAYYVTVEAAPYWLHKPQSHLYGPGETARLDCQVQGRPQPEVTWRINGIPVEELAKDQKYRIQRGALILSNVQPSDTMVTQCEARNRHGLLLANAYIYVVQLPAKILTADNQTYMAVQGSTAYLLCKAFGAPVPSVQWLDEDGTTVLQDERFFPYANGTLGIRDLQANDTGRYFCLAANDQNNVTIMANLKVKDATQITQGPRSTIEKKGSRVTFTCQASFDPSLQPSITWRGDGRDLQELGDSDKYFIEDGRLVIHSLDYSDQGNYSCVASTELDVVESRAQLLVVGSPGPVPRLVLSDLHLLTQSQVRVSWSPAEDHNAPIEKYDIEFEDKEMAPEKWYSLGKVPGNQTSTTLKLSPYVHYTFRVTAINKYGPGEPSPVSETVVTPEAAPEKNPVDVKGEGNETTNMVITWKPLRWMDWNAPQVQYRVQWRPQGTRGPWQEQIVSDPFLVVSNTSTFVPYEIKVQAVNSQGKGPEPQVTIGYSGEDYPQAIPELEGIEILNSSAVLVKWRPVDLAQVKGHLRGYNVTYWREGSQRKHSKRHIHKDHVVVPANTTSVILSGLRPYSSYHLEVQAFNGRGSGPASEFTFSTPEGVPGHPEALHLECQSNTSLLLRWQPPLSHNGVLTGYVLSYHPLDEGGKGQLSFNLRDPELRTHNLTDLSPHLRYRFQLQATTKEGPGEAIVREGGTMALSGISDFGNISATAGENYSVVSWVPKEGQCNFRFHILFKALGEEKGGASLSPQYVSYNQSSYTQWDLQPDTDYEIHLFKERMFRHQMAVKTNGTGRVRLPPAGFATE

Binder | Kd
B3 | 1.13 nM
B4 | 0.12 nM
B5 | 0.07 nM
B7 | 1.2 nM
B8 | 0.58 nM

biological target: T1, human L1CAM on cells; test: flow cytometry, MDA-MB-231 cells
Method: as §1

Binder | EC50
B3 | 1.7 nM
B4 | 0.9 nM
B5 | 9.6 nM
B6 | 6.7 nM
B7 | 8.9 nM
B8 | 0.98 nM

biological target: T3, soluble cynomolgus monkey L1CAM, His-tagged, monomeric (cynomolgus monkey, UniProt A0A2K5URB5 20-1120); test: BLI, soluble cynomolgus L1CAM-His
T3 construct: also called cyL1CAM protein; cynomolgus L1CAM-His
Method: as §1

Binder | Kd
B3 | 19.8 nM
B4 | 0.34 nM
B5 | 0.6 nM
B6 | 3.2 nM
B7 | 3.2 nM
B8 | 0.93 nM

biological target: T4, recombinant L1CAM-Fc fusion protein (human, UniProt P32004 20-1120); test: BLI, L1CAM-Fc on AHC biosensors, Fab 3-200 nM, 1:1 fit
T4 construct: also called recombinant L1CAM protein; not shown: human Fc fused to the carboxy terminus
Method: Here, recombinant L1CAM-Fc fusion protein was immobilized onto anti-Human IgG Fc Capture (AHC) biosensors and binding of Fabs was measured kinetically over a 3-200 nM concentration range. Kinetic data were fitted to a 1:1 binding model to compute association (kₒₙ) and dissociation (koff) rate constants, in addition to equilibrium dissociation constants (KD) as shown in Table 87.

T4 sequence (P32004 20-1120): as above

Binder | Kd | koff | kon
B9 | 39.6 nM | 0.0232 s⁻¹ | 586000 M⁻¹ s⁻¹
B10 | 88.8 nM | 0.0706 s⁻¹ | 797000 M⁻¹ s⁻¹

biological target: T1, human L1CAM on cells; test: flow cytometry, HEK293T cells overexpressing human L1CAM
Method: as §1

Binder | EC50
B3 | 4 nM
B4 | 1 nM
B5 | 2.3 nM
B6 | 4.8 nM
B7 | 3.5 nM
B8 | 2.6 nM

biological target: T5, mouse L1CAM on transiently transfected HEK293FT cells (mouse, UniProt P11627 20-1260); test: flow cytometry, HEK293FT cells transfected with mouse L1CAM
T5 construct: whole, on cells; also called mouse L1CAM on cells
T5 sequence (P11627 20-1260): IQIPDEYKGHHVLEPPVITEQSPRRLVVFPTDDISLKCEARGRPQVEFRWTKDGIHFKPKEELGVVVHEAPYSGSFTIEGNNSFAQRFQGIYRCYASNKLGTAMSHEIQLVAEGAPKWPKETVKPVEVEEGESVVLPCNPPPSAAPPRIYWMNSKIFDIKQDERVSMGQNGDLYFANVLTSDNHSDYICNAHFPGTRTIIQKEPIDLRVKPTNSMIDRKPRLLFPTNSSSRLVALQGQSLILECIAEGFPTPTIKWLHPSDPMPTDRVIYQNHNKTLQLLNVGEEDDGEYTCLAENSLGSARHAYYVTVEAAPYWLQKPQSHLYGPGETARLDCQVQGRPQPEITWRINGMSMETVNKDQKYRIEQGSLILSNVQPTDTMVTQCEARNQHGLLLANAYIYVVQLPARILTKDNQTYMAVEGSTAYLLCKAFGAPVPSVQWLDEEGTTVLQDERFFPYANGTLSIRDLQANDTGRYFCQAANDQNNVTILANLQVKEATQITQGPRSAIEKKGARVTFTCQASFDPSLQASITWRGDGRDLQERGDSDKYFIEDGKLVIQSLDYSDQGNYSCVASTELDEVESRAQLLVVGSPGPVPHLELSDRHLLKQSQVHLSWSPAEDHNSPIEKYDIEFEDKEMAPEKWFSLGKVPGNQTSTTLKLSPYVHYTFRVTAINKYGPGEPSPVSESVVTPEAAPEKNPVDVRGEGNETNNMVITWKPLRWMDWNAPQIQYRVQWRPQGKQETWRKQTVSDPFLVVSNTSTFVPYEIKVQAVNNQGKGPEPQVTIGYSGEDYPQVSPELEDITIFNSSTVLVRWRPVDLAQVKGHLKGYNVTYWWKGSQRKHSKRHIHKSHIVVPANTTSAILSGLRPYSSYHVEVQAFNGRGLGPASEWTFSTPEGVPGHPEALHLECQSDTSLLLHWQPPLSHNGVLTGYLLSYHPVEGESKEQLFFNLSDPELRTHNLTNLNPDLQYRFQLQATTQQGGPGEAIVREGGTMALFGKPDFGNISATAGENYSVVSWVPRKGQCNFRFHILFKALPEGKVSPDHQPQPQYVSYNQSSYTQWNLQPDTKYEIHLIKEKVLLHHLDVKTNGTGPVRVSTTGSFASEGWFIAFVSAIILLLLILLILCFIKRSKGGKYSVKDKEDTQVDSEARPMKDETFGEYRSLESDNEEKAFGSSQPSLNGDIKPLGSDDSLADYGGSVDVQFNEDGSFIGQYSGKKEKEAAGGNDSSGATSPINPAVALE

Binder | binding result | EC50
B3 | no binding | –
B4 | no binding | –
B5 | no binding | –
B6 | no binding | –
B7 | – | 5.6 nM
B8 | no binding | –

biological target: T2, extracellular domain of human L1CAM …; test: BLI, soluble human L1CAM-His; off-rate below detection limit

Binder | Kd
B6 | < 0.02 nM

biological target: T1, human L1CAM on cells; test: FACS on cells expressing L1CAM (293FT or MDA-MB-231; the table does not say which)
Method: Briefly, CDR-grafted heavy and light chains were expressed in various combinations and the antigen-binding properties were evaluated.

Binder | EC50
B4 | 0.85 nM
B11 | 0.727 nM
B12 | 5.93 nM
